Reference: PMC4031664 (Prion, 2013)

B1: PrP-like ectodomain of ZIP5 (domain or fragment)
chain: WVGGSVPNLGPAEQEQNHYLAQLFGLYGENGTLTAGGLARLLHSLGLGRVQGLRLGHHEPPTGRAAPTSGDNFTHRLQEPELSVDIWAGMPLGPSGWGDQEESKAPDLHGSGPSSLDLFQRLLLLDHSLADHLNEDCLNGSQLLVNFGLSPVAPLTPRQFALLCPALLYQIDSRVCIKTPAPAPPGDVLSA
B2: Syrian hamster PrP90–232 (domain or fragment)
chain: not shown
B3: full-length PrP (mouse PrP 23–231) (natural protein)
chain: not shown
B4: C-terminal PrP domain (mouse PrP 120–231) (domain or fragment)
chain: not shown

Legend:
[1] = target: the molecule itself
native gel or EMSA = target: the molecule itself; experiment: native gel or EMSA

Row | Protein | stoichiometry N [1] | binding result (native gel or EMSA)
1 | B1 | 2 | 
2 | B2 |  | binds
3 | B3 |  | binds
4 | B4 |  | binds
